In publication PMC3360035 (PLoS ONE, 2012):

Molecular target: Human γD-crystallin I90F (human, UniProt P07320 1-174, I90F)
Assay: cell-based or functional assay

suppression of aggregation on dilution out of 5 M GdnHCl (from maximum A350), αB in 5-fold molar excess: 70%
B1: αB-crystallin, wild type (natural protein, UniProt P02511 1-175, looked up)
chain: MDIAIHHPWIRRPFFPFHSPSRLFDQFFGEHLLESDLFPTSTSLSPFYLRPPSFLRAPSWFDTGLSEMRLEKDRFSVNLDVKHFSPEELKVKVLGDVIEVHGKHEERQDEHGFISREFHRKYRIPADVDPLTITSSLSSDGVLTVNGPRKQVSGPERTIPITREEKPAVTAAPKK
